These molecules were tested on maize plants (assay: Herbicide tolerance of transgenic maize T1 plants (spraying, damage degree)). Conditions: sprayed with tribenuron-methyl 144 g ai/ha, eight-fold field concentration.
Format: in vivo
Method: The degree of damage caused by the herbicide was measured for each plant according to the plant growth status 3 days after spraying (3 DAT), 7 days after spraying (7 DAT), 14 days after spraying (14 DAT) and 21 days after spraying (21 DAT): a growth status equivalent to that of the untreated plants is defined as having a damage degree of 0%; the case where leaves are locally chlorotic and yellow but the normal plant growth is substantially not affected is defined as having a damage degree of 50%; and the case where the whole plant is purple and dying is defined as having a damage degree of 100%. The maize plants into which the ALT02M1-02 nucleotide sequence was introduced were of three strains in total (S15, S16 and S17), the maize plants into which the ALT02M2-02 nucleotide sequence was introduced were of three strains in total (S18, S19 and S20), the maize plants into which the ALT02M3-02 nucleotide sequence was introduced were of three strains in total (S21, S22 and S23), the maize plants into which the ALT02-02 nucleotide sequence was introduced were of three strains in total (S24, S25 and S26), the control maize plants were of two strains in total (S27 and S28), and the wild-type maize plants were of one strain in total (CK2); and 10-15 plants were selected from each strain and tested.

Row | Molecule | herbicide tolerance compared with maize plants into which ALT02-02 was introduced | herbicide tolerance imparted to transgenic maize plants
1 | ALT02M1-02: nucleotide sequence SEQ ID NO: 26 encoding ALT02M1, based on maize codon usage bias (nucleic acid, the ALT02M1-02 nucleotide sequence encoding the amino acid sequence corresponding to the herbicide tolerant protein ALT02M1 and based on the maize codon usage bias) DNA: ATGGAGACTGATAACGTGGAGCTGGCGCAGAGCAAGAGGAAGGTGGTTCTGGCTGAGCAGGGGTCGTTCTACATTGGGGGGCGGACTGTGACCGGGCCCGGCAAGTTCGACCCATCGAAGCCTGTCATTCCGTACTCTAACGAGGGCGCTACGTTCTACATCAACCAGATGTACGTGAATTTCCAGGCTCCCGTCCGCCCAAGGGGCCTCCCACTGGTGTTCTGGCACGGCGGGGGCCTGACAGGCCATATCTGGGAGTCCACTCCAGATGGCCGCCCAGGGTTCCAGACACTCTTCGTTCAGGACAGGCACACAGTGTACACTATTGATCAGCCAGGGAGGGGCAGGGGGAACATCCCTACCTTCAATGGCCCATTCGGGCAGCTGGAGGAGGAGTCCATCGTGAACACCGTCACGGCGAATTCCAGCAAGGAGGGGGCTTGGGTCAGGGACCGGCTCGGCCCGGCCCCAGGGCAGTTCTTCGAGAACTCTCAGTTCCCCCGGGGCTACGAGGATAATTACTTCAAGGAGATGGGCTTCTCACCATCCATCTCGTCTGACGAGATTGTCGATGCCGTGGTCAAGCTCGTTACCCACATCGGCCCTTGCGTTCTGGTGACGCATAGCGCTTCGGGCGTCCTCGGGATGAGGGTTGCTACACATGCGAAGAACGTTCGCGGCATCGTGGCTTACGAGCCGGCCACTTCCATTTTCCCCAAGGGCAAGGTGCCAGAGATCCCACCACTGGCCGACAAGAAGTCACAGATCTTCCCACCTTTCGAGATTCAGGAGTCCTACTTCAAGAAGCTCGCTAAGATCCCCATTCAGTTCGTGTTCGGCGACAACATTCCTAAGAATCCGAAGAGCGCGTACTGGTTCCTGGATTGGTGGCGCGTCACGCGCTACGCGCACTCTCTCTCACTGGAGGCTATCAACAAGCTCGGGGGCCAGGCCTCGCTCCTGGACCTCCCTACCGCTGGCCTGAGGGGGAACACCCATTTCCCGTTCACGGATCGGAACAATGTCCAGGTTGCGTCCCTCCTGAGCGATTTCCTCGGCAAGCACGGGCTGGATCAGAATGAGTCTAAGCTCGCTGCGGCGCTGGAGTGA | significantly increased tolerance to benzenesulfonic acid | impart transgenic maize plants with the tolerance to benzenesulfonic acid
2 | ALT02M3-02: nucleotide sequence SEQ ID NO: 34 encoding ALT02M3, based on maize codon usage bias (nucleic acid, the ALT02M3-02 nucleotide sequence encoding the amino acid sequence corresponding to the herbicide tolerant protein ALT02M3 and based on the maize codon usage bias) DNA: ATGGAGACTGATAACGTGGAGCTGGCGCAGAGCAAGAGGAAGGTGGTTCTGGCTGAGCAGGGGTCGTTCTACATTGGGGGGCGGACTGTGACCGGGCCCGGCAAGTTCGACCCATCGAAGCCTGTCATTCGGGCGTCTAACGAGGGCGCTACGTTCTACATCAACCAGATGTACGTGAATTTCCAGGCTCCCGTCCGCCCAAGGGGCCTCCCACTGGTGTTCTGGCACGGCGGGGGCCTGACAGGCCATATCTGGGAGTCCACTCCAGATGGCCGCCCAGGGTTCCAGACACTCTTCGTTCAGGACAGGCACACAGTGTACACTATTGATCAGCCAGGGAGGGGCAGGGGGAACATCCCTACCTTCAATGGCCCATTCGGGCAGCTGGAGGAGGAGTCCATCGTGAACACCGTCACGGCGAATGTGAGCAAGGAGCGGGCTTGGGTCAGGGACCGGCTCGGCCCGGCCCCAGGGCAGTTCTTCGAGAACTCTCAGTTCCCCCGGGGCTACGAGGATAATTACTTCAAGGAGATGGGCTTCTCACCATCCATCTCGTCTGACGAGATTGTCGATGCCGTGGTCAAGCTCGTTACCCACATCGGCCCTTGCGTTCTGGTGACGCATAGCGCTTCGGGCGTCCTCGGGATGAGGGTTGCTACACATGCGAAGAACGTTCGCGGCATCGTGGCTTACGAGCCGGCCACTTCCATTTTCCCCAAGGGCAAGGTGCCAGAGATCCCACCACTGGCCGACAAGAAGTCACAGATCTTCCCACCTTTCGAGATTCAGGAGTCCTACTTCAAGAAGCTCGCTAAGATCCCCATTCAGTTCGTGTTCGGCGACAACATTCCTAAGAATCCGAAGAGCGCGTACTGGTTCCTGGATTGGTGGCGCGTCACGCGCTACGCGCACTCTCTCTCACTGGAGGCTATCAACAAGCTCGGGGGCCAGGCCTCGCTCCTGGACCTCCCTACCGCTGGCCTGAGGGGGAACACCCATTTCCCGTTCACGGATCGGAACAATGTCCAGGTTGCGTCCCTCCTGAGCGATTTCCTCGGCAAGCACGGGCTGGATCAGAATGAGTCTAAGCTCGCTGCGGCGCTGGAGTGA | significantly increased tolerance to benzenesulfonic acid | impart transgenic maize plants with the tolerance to benzenesulfonic acid
3 | ALT02M2-02: nucleotide sequence SEQ ID NO: 30 encoding ALT02M2, based on maize codon usage bias (nucleic acid, the ALT02M2-02 nucleotide sequence encoding the amino acid sequence corresponding to the herbicide tolerant protein ALT02M2 and based on the maize codon usage bias) DNA: ATGGAGACTGATAACGTGGAGCTGGCGCAGAGCAAGAGGAAGGTGGTTCTGGCTGAGCAGGGGTCGTTCTACATTGGGGGGCGGACTGTGACCGGGCCCGGCAAGTTCGACCCATCGAAGCCTGTCATTCCGTACTCTAACGAGGGCGCTACGTTCTACATCAACCAGATGTACGTGAATTTCCAGGCTCCCGTCCGCCCAAGGGGCCTCCCACTGGTGTTCTGGCACGGCGGGGGCCTGACAGGCCATATCTGGGAGTCCACTCCAGATGGCCGCCCAGGGTTCCAGACACTCTTCGTTCAGGACAGGCACACAGTGTACACTATTGATCAGCCAGGGAGGGGCAGGGGGAACATCCCTACCTTCAATGGCCCATTCGGGCAGCTGGAGGAGGAGTCCATCGTGAACACCGTCACGGGCAATGTGAGCAAGGAGGGGGCTTGGGTCAGGGACCGGCTCGGCCCGGCCCCAGGGCAGTTCTTCGAGAACTCTCAGTTCCCCCGGGGCTACGAGGATAATTACTTCAAGGAGATGGGCTTCTCACCATCCATCTCGTCTGACGAGATTGTCGATGCCGTGGTCAAGCTCGTTACCCACATCGGCCCTTGCGTTCTGGTGACGCATAGCGCTTCGGGCGTCCTCGGGATGAGGGTTGCTACACATGCGAAGAACGTTCGCGGCATCGTGGCTTACGAGCCGGCCACTTCCATTTTCCCCAAGGGCAAGGTGCCAGAGATCCCACCACTGGCCGACAAGAAGTCACAGATCTTCCCACCTTTCGAGATTCAGGAGTCCTACTTCAAGAAGCTCGCTAAGATCCCCATTCAGTTCGTGTTCGGCGACAACATTCCTAAGAATCCGAAGAGCGCGTACTGGTTCCTGGATTGGTGGCGCGTCACGCGCTACGCGCACTCTCTCTCACTGGAGGCTATCAACAAGCTCGGGGGCCAGGCCTCGCTCCTGGACCTCCCTACCGCTGGCCTGAGGGGGAACACCCATTTCCCGTTCACGGATCGGAACAATGTCCAGGTTGCGTCCCTCCTGAGCGATTTCCTCGGCAAGCACGGGCTGGATCAGAATGAGTCTAAGCTCGCTGCGGCGCTGGAGTGA | significantly increased tolerance to benzenesulfonic acid | impart transgenic maize plants with the tolerance to benzenesulfonic acid
4 | ALT02-02: nucleotide sequence SEQ ID NO: 22 encoding ALT02, based on maize codon usage bias (nucleic acid, the ALT02-02 nucleotide sequence encoding the amino acid sequence corresponding to the herbicide tolerant protein ALT02 and based on the maize codon usage bias) DNA: ATGGAGACTGATAACGTGGAGCTGGCGCAGAGCAAGAGGAAGGTGGTTCTGGCTGAGCAGGGGTCGTTCTACATTGGGGGGCGGACTGTGACCGGGCCCGGCAAGTTCGACCCATCGAAGCCTGTCATTCCGTACTCTAACGAGGGCGCTACGTTCTACATCAACCAGATGTACGTGAATTTCCAGGCTCCCGTCCGCCCAAGGGGCCTCCCACTGGTGTTCTGGCACGGCGGGGGCCTGACAGGCCATATCTGGGAGTCCACTCCAGATGGCCGCCCAGGGTTCCAGACACTCTTCGTTCAGGACAGGCACACAGTGTACACTATTGATCAGCCAGGGAGGGGCAGGGGGAACATCCCTACCTTCAATGGCCCATTCGGGCAGCTGGAGGAGGAGTCCATCGTGAACACCGTCACGGGCAATTCCAGCAAGGAGGGGGCTTGGGTCAGGGACCGGCTCGGCCCGGCCCCAGGGCAGTTCTTCGAGAACTCTCAGTTCCCCCGGGGCTACGAGGATAATTACTTCAAGGAGATGGGCTTCTCACCATCCATCTCGTCTGACGAGATTGTCGATGCCGTGGTCAAGCTCGTTACCCACATCGGCCCTTGCGTTCTGGTGACGCATAGCGCTTCGGGCGTCCTCGGGATGAGGGTTGCTACACATGCGAAGAACGTTCGCGGCATCGTGGCTTACGAGCCGGCCACTTCCATTTTCCCCAAGGGCAAGGTGCCAGAGATCCCACCACTGGCCGACAAGAAGTCACAGATCTTCCCACCTTTCGAGATTCAGGAGTCCTACTTCAAGAAGCTCGCTAAGATCCCCATTCAGTTCGTGTTCGGCGACAACATTCCTAAGAATCCGAAGAGCGCGTACTGGTTCCTGGATTGGTGGCGCGTCACGCGCTACGCGCACTCTCTCTCACTGGAGGCTATCAACAAGCTCGGGGGCCAGGCCTCGCTCCTGGACCTCCCTACCGCTGGCCTGAGGGGGAACACCCATTTCCCGTTCACGGATCGGAACAATGTCCAGGTTGCGTCCCTCCTGAGCGATTTCCTCGGCAAGCACGGGCTGGATCAGAATGAGTCTAAGCTCGCTGCGGCGCTGGAGTGA |  | impart transgenic maize plants with the tolerance to benzenesulfonic acid

Source: patent US12385058B2, “Herbicide tolerance protein, encoding gene thereof and use thereof” (Beijing Dabeinong Biotechnology Co., Ltd., priority 2018, dated 2025)
